# According to patent publication US20250049939A1 (TUBULIS, published 2025):
# T1: recombinant human FLT3 protein (human, UniProt P36888 27-541)
# T1 construct: also called recombinant FLT3 protein; human recombinant FLT3 protein (10445-H08H, Sino Biological)
# T1 sequence: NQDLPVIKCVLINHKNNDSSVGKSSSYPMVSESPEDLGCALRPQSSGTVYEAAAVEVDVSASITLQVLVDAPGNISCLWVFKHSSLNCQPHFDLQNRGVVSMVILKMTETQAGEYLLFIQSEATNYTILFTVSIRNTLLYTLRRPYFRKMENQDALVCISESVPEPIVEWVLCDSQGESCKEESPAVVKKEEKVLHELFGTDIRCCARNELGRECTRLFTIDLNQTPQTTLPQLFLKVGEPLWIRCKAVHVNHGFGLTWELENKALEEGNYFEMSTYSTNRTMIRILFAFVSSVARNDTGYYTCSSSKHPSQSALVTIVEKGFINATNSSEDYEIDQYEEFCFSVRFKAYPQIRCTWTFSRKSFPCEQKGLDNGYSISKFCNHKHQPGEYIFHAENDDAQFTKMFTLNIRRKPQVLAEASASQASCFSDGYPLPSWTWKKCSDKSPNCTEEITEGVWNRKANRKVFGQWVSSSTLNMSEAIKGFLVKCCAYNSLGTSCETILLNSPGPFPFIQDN
# T2: human wildtype FLT3 expressed on Ba/F3 cells (human, UniProt P36888 27-993)
# T2 construct: also called hFLT3 wt; Ba/F3-FLT3
# T2 sequence: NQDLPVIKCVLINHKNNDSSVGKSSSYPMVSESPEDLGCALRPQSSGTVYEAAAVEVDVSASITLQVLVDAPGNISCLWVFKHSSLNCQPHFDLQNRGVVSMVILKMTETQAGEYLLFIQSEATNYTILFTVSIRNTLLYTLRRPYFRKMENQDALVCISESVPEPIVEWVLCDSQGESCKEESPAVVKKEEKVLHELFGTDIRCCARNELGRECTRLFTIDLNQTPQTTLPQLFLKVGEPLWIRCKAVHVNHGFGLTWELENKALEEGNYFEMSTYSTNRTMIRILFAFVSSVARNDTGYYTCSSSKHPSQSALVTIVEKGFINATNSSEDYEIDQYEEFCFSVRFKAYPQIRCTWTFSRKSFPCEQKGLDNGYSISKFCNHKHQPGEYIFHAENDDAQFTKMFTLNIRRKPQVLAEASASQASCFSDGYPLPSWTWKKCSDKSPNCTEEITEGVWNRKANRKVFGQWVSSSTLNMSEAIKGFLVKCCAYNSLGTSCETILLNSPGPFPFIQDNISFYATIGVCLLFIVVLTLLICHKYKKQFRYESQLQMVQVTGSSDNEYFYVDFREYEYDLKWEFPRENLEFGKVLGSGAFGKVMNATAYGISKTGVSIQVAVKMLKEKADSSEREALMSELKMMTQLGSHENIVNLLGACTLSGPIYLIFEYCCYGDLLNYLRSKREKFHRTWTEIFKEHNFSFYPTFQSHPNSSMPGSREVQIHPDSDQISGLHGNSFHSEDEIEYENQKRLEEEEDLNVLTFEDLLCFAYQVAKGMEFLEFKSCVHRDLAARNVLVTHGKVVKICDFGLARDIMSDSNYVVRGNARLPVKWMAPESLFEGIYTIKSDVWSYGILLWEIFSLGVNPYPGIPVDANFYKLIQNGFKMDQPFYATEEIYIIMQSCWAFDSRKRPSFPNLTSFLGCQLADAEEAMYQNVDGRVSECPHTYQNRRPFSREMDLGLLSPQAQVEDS
# B1: 29H1 chimeric anti-FLT3 monoclonal antibody (antibody, V domains shown)
# VH: EVKLEESGGGLVQPGGSMKFFCVASGFTFSNYWMNWVRQSPEKGLEWVAQIKLKSDNYATRYAESVKGRFTISRDDSKSSVNLQMNNLRAEDTGIYYCTVSLARSDYWGQGTTLTVSS
# VL: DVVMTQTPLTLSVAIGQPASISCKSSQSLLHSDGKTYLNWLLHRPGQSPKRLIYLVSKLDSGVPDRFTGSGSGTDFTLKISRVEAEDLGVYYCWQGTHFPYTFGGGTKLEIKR
# B2: 27E7 chimeric anti-FLT3 monoclonal antibody (antibody, V domains shown)
# VH: EVKLEESGGDLVQPGGSMKLSCVASGFTFRNYWMNWVRQSPEKGLEWVAQIRLKSDNYATHYAESVKGRFTMSRDDSKSSVYLQMNTLRAEDTGIYYCTVSLARSDYWGQGTTLTVSS
# VL: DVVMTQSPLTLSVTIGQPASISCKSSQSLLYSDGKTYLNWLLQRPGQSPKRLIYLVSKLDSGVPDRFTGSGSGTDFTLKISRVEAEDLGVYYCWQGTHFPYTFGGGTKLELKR
# B3: #5 (antibody, human IgG1, kappa, V domains shown)
# VH: QVMLVESGGGVVQPGRSLRLSCAASGFTFNNYWMTWVRQAPGKGLEWIASITKTGGGTYYPDSVKGRFTISRDNAKSTLYLQMNSLRSEDTATYYCTTLQQLGVMDAWGQGASVTVSS
# VL: DIQMTQSPSVLSASVGDRVTITCRASQNINKELNWYQQKLGKAPKLLIYNTNNLQSGVPSRFSGSGSGTDFTLTISSLQPEDFATYYCFQHKSWPLTFGSGTKLEIKR
# notes: also called Humanized clone 5 of 20D9 (VH1 + VK2); Clone #5
# B4: Humanized clone 4 of 20D9 (VH4 + VK1) (antibody, human IgG1, kappa, V domains shown)
# VH: QVQLVESGGGVVQPGRSLRLSCAASGFTFNNYWMTWIRQAPGKGLEWIASITKTGGGTYYADSVKGRFTISRDNSKNTLYLQMNSLRAEDTAVYYCTTLQQLGVMDAWGQGTLVTVSS
# VL: DIQMTQSPSVLSASVGDRVTINCRASQNINKELNWYQQKLGEAPKLLIYNTNNLQSGVPSRFSGSGSGTDYTLTISSLQPEDVATYFCFQHKSWPLTFGSGTKLEIKR
# B5: #12 (antibody, human IgG1, kappa, V domains shown)
# VH: QVQLVESGGGVVQPGRSLRLSCAASGFTFNNYWMTWIRQAPGKGLEWIASITKTGGGTYYADSVKGRFTISRDNSKNTLYLQMNSLRAEDTAVYYCTTLQQLGVMDAWGQGTLVTVSS
# VL: DIQMTQSPSSLSASVGDRVTITCRASQSINKELNWYQQKPGKAPKLLIYNTNNLQSGVPSRFSGSGSGTDFTLTISSLQPEDFATYYCFQHKSWPLTFGQGTKLEIKR
# notes: also called Humanized clone 12 of 20D9 (VH4 + VK3); Clone #12
# B6: #9 (antibody, human IgG1, kappa, V domains shown)
# VH: QVMLVESGGGVVQPGRSLRLSCAASGFTFNNYWMTWVRQAPGKGLEWIASITKTGGGTYYPDSVKGRFTISRDNAKSTLYLQMNSLRSEDTATYYCTTLQQLGVMDAWGQGASVTVSS
# VL: DIQMTQSPSSLSASVGDRVTITCRASQSINKELNWYQQKPGKAPKLLIYNTNNLQSGVPSRFSGSGSGTDFTLTISSLQPEDFATYYCFQHKSWPLTFGQGTKLEIKR
# notes: also called Humanized clone 9 of 20D9 (VH1 + VK3); Clone #9
# B7: #11 (antibody, human IgG1, kappa, V domains shown)
# VH: QVQLVESGGGVVQPGRSLRLSCAASGFTFNNYWMTWVRQAPGKGLEWIASITKTGGGTYYADSVKGRFTISRDNSKNTLYLQMNSLRAEDTAVYYCTTLQQLGVMDAWGQGTLVTVSS
# VL: DIQMTQSPSSLSASVGDRVTITCRASQSINKELNWYQQKPGKAPKLLIYNTNNLQSGVPSRFSGSGSGTDFTLTISSLQPEDFATYYCFQHKSWPLTFGQGTKLEIKR
# notes: also called Humanized clone 11 of 20D9 (VH3 + VK3); Clone #11
# B8: Humanized clone 1 of 20D9 (VH1 + VK1) (antibody, human IgG1, kappa, V domains shown)
# VH: QVMLVESGGGVVQPGRSLRLSCAASGFTFNNYWMTWVRQAPGKGLEWIASITKTGGGTYYPDSVKGRFTISRDNAKSTLYLQMNSLRSEDTATYYCTTLQQLGVMDAWGQGASVTVSS
# VL: DIQMTQSPSVLSASVGDRVTINCRASQNINKELNWYQQKLGEAPKLLIYNTNNLQSGVPSRFSGSGSGTDYTLTISSLQPEDVATYFCFQHKSWPLTFGSGTKLEIKR
# B9: #7 (antibody, human IgG1, kappa, V domains shown)
# VH: QVQLVESGGGVVQPGRSLRLSCAASGFTFNNYWMTWVRQAPGKGLEWIASITKTGGGTYYADSVKGRFTISRDNSKNTLYLQMNSLRAEDTAVYYCTTLQQLGVMDAWGQGTLVTVSS
# VL: DIQMTQSPSVLSASVGDRVTITCRASQNINKELNWYQQKLGKAPKLLIYNTNNLQSGVPSRFSGSGSGTDFTLTISSLQPEDFATYYCFQHKSWPLTFGSGTKLEIKR
# notes: also called Humanized clone 7 of 20D9 (printed as VH3 + VK29); Clone #7
# B10: Humanized clone 2 of 20D9 (VH2 + VK1) (antibody, human IgG1, kappa, V domains shown)
# VH: QVMLVESGGGVVQPGRSLRLSCAASGFTFNNYWMTWVRQAPGKGLEWIASITKTGGGTYYPDSVKGRFTISRDNSKSTLYLQMNSLRAEDTATYYCTTLQQLGVMDAWGQGASVTVSS
# VL: DIQMTQSPSVLSASVGDRVTINCRASQNINKELNWYQQKLGEAPKLLIYNTNNLQSGVPSRFSGSGSGTDYTLTISSLQPEDVATYFCFQHKSWPLTFGSGTKLEIKR
# B11: #10 (antibody, human IgG1, kappa, V domains shown)
# VH: QVMLVESGGGVVQPGRSLRLSCAASGFTFNNYWMTWVRQAPGKGLEWIASITKTGGGTYYPDSVKGRFTISRDNSKSTLYLQMNSLRAEDTATYYCTTLQQLGVMDAWGQGASVTVSS
# VL: DIQMTQSPSSLSASVGDRVTITCRASQSINKELNWYQQKPGKAPKLLIYNTNNLQSGVPSRFSGSGSGTDFTLTISSLQPEDFATYYCFQHKSWPLTFGQGTKLEIKR
# notes: also called Humanized clone 10 of 20D9 (VH2 + VK3); Clone #10
# B12: #6 (antibody, human IgG1, kappa, V domains shown)
# VH: QVMLVESGGGVVQPGRSLRLSCAASGFTFNNYWMTWVRQAPGKGLEWIASITKTGGGTYYPDSVKGRFTISRDNSKSTLYLQMNSLRAEDTATYYCTTLQQLGVMDAWGQGASVTVSS
# VL: DIQMTQSPSVLSASVGDRVTITCRASQNINKELNWYQQKLGKAPKLLIYNTNNLQSGVPSRFSGSGSGTDFTLTISSLQPEDFATYYCFQHKSWPLTFGSGTKLEIKR
# notes: also called Humanized clone 6 of 20D9 (VH2 + VK2); Clone #6
# B13: #8 (antibody, human IgG1, kappa, V domains shown)
# VH: QVQLVESGGGVVQPGRSLRLSCAASGFTFNNYWMTWIRQAPGKGLEWIASITKTGGGTYYADSVKGRFTISRDNSKNTLYLQMNSLRAEDTAVYYCTTLQQLGVMDAWGQGTLVTVSS
# VL: DIQMTQSPSVLSASVGDRVTITCRASQNINKELNWYQQKLGKAPKLLIYNTNNLQSGVPSRFSGSGSGTDFTLTISSLQPEDFATYYCFQHKSWPLTFGSGTKLEIKR
# notes: also called Humanized clone 8 of 20D9 (VH4 + VK2); Clone #8
# B14: 30B12 chimeric anti-FLT3 monoclonal antibody (antibody, V domains shown)
# VH: QVQLKVSGPGLVQPSQTLSLTCAVSGFSLSNYHVSWVRQPPGKGLEWIAAISSGGSTYYNSPLKSRLSISRDTSKSQVFLKMNSLQTEDTAIYFCTGEDGYTFGNVMDAWGQGASVTVSS
# VL: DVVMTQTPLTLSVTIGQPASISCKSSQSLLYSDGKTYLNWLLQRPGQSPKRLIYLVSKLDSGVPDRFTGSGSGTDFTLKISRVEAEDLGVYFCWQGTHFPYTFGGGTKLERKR
# B15: 4B12 chimeric anti-FLT3 monoclonal antibody (antibody, V domains shown)
# VH: QVQLQQSGPGLVQPSQTLSLTCTVSGFSLTSYNVNWVRQPPGKGLEWIGAMWRGGGTDYNPALKSRLSISRDTSKSQVFLKMNRLQTEDTAIYFCTRGFGDYWGQGVMVTVSS
# VL: DIQMTQTPLSLSVAIGQSASISCKSSQSLKYSDGKTYLNWVFQSPGQSPKRLIYQVSKLDSGVPDRFSGTGSETDFTLKISRVEAEDLGVYYCCQGSYSPSTFGAGTKLELKR
# notes: also called 4B12 mab
# Key:
# [1] = target: T1, recombinant human FLT3 protein; assay: ELISA on recombinant human FLT3, normalized to BSA control
# Experimental: (§1) Maxisorp plates were coated with human recombinant FLT3 protein (10445-H08H, Sino Biological). […] For detection, Attophos Fluorescent Substrate System (S1000, Promega) was applied. The fluorescence was read with excitation of 405 nm and emission at 500-550 nm. The calculation of the dissociation constant KD was performed using GraphPad Prism version 9.4.0.
# [2] = target: T1, recombinant human FLT3 protein; assay: ELISA with recombinant human FLT3 coated to the plate (results of FIG. 13 summarized)
# Experimental: as §1
# The 12 clones were subsequently analysed in ELISA assays (FIG. 13). Therefore, recombinant human FLT3 was coated on plates and incubated with the antibody candidates. […] Mean±s.d. of n=3 biological replicates.
# [3] = target: T2, human wildtype FLT3 expressed on Ba/F3 …; assay: flow cytometry, cell surface binding to Ba/F3 cells expressing human FLT3 (results of FIG. 14 summarized)
Binder,Kd [1],Kd [2],Binding to human FLT3 (MFI ratio to IgG1 control) [3]
B1,0.0284 µg/mL,–,–
B2,0.0115 µg/mL,–,–
B3,–,0.0293 µg/mL,42.4
B4,–,0.011 µg/mL,98.2
B5,–,0.0553 µg/mL,24.8
B6,–,0.0834 µg/mL,21.3
B7,–,0.112 µg/mL,20.5
B8,–,0.0114 µg/mL,96
B9,–,0.0371 µg/mL,45.7
B10,–,0.0114 µg/mL,96
B11,–,0.0778 µg/mL,20.2
B12,–,0.0335 µg/mL,41.3
B13,–,0.0293 µg/mL,43.7
B14,3.31 µg/mL,–,–
B15,0.0319 µg/mL,–,–
